± gives the uncertainty stated by the source.
Assay: amyloid nucleation score (Sup35N fusion, yeast selection) (log enrichment); library NNK2; higher = more nucleation; inactive = no reads after selection
In short: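 Peptides of 20 random codons, each fused to Sup35N, were expressed in psi-negative yeast. Cells were induced with 100 μM copper sulfate for 24 hours and grown 7 days at 30°C on medium lacking adenine and uracil, and plasmid inserts before and after selection were Illumina-sequenced. Nucleation scores are DiMSum log enrichments of output over input reads, centred on the mode score of non-aggregating sequences, and sequences under 100 input reads were excluded.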

Row | Substance | amyloid nucleation score
1 | LSFGIVKLVMRAFTKKVTKG | 0.388 ± 0.47
2 | LSFRYVFIWIEVFPILGNMR | -1.77 ± 0.34
3 | LSIFKGNTNLLLSYVPALNI | -1.29 ± 0.64
4 | LSINLSDMNFVVHSCLGSLG | 5.45 ± 0.077
5 | LSINSFTKHQ | 0.148 ± 1
6 | LSKINVFWKSSTALQCLAPE | -0.322 ± 0.55
7 | LSLFLLVICSSAFM | inactive
8 | LSLLEGKVWLRWY | 1.2 ± 0.61
9 | LSLRDVGGLLSNLSIMCGKG | 0.144 ± 0.25
10 | LSMTKVLFCTFEITSLSLYQ | -0.245 ± 0.62
11 | LSNAFRLNYTLLYAFISYFH | -1.22 ± 0.76
12 | LSNWHHFSQSRDFDKSLWVS | -0.386 ± 0.42
13 | LSNWSPFYMLHQSISFCSRS | 3.08 ± 0.051
14 | LSPVSWYLRITYNAYSMVGQ | 1.91 ± 0.11
15 | LSRAN | inactive
16 | LSSLYFSLFNYYLFNRFIFN | inactive
17 | LSSSMSSSRASQDFGFLGVH | 0.877 ± 0.48
18 | LSVCLAKPTCDVSF | 0.201 ± 0.33
19 | LSVSHMCEADLQYRTLFLSK | -0.606 ± 0.37
20 | LSVTGDTWRMVSRYSHECKD | 0.859 ± 0.52
21 | LSVTPIFGRNTDTLESGL | -0.093 ± 0.55
22 | LSYPTVYLATLVYFLQMWAV | -0.285 ± 0.37
23 | LSYRHNGPHPGGYNCTGSRV | inactive
24 | LSYTSDSRPAGF | -0.347 ± 1.1
25 | LSYVFIVECPSSAGMLPRPF | 4.01 ± 0.13

Row | Substance | amyloid nucleation score
26 | LTDNS | 0.147 ± 0.61
27 | LTFPA | -0.206 ± 1.1
28 | LTHQRRRLMMCI | 0.283 ± 0.32
29 | LTIPDFRSGRRRVAQRDLVV | -0.157 ± 0.37
30 | LTIVLQLGLL | 8.52 ± 0.066
31 | LTNEI | -0.515 ± 1
32 | LTNNHYIKPFRSRIRVMVMY | 4.79 ± 0.069
33 | LTRYLLWLLVESGFLGRSGV | -0.21 ± 0.79
34 | LTSCGLVWCSIRRPGMKALV | -0.077 ± 0.76
35 | LTSWKDFRHN | 0.4 ± 0.5
36 | LTVLLSMK | -0.911 ± 0.5
37 | LTWSVVRKYSIALRCGGR | -0.002 ± 0.63
38 | LTYILFGYFMASCFMCFFVS | 0.138 ± 1.1
39 | LVAKHSG | 0.693 ± 0.27
40 | LVCYV | 0.611 ± 0.46
41 | LVEAFYNVWRRTSAHCETVC | -0.272 ± 0.55
42 | LVEGCILSRHQESVNLRFCL | 1.22 ± 0.29
43 | LVFDACTPEEVGG | 0.735 ± 0.27
44 | LVGMSATYPTHNWFKVRTYF | -0.104 ± 0.76
45 | LVGSVWFEISFDSQMYSFG | inactive
46 | LVGWSGLLTDALEFLLSKDV | -0.592 ± 0.76
47 | LVHYPIYFLDNGFRHGDWEG | -0.187 ± 0.55
48 | LVIALSFCY | 3.57 ± 0.069
49 | LVIKCFCA | 6.476 ± 0.031
50 | LVILEINVPKNIVSQRNYVP | 8.045 ± 0.03

Row | Substance | amyloid nucleation score
51 | LVLAASTFQYSGRGYASDML | 1.49 ± 0.29
52 | LVLWM | 1.68 ± 0.36
53 | LVLYVSKMPYMSEPRSIILR | 0.64 ± 0.58
54 | LVNMGSGPALYLYPLSIMVK | -1.42 ± 1.1
55 | LVNSGKLVIPPAVSWWYNWF | -0.763 ± 0.37
56 | LVNVIS | 0.2 ± 0.35
57 | LVQGNTFE | 1.19 ± 0.44
58 | LVQYMTMRCVFSNIGGMTSG | 0.263 ± 0.64
59 | LVRDHRNRVGFCQMSQ | 0.248 ± 0.44
60 | LVRTLAYCASKNNFVRL | -0.038 ± 0.63
61 | LVSERGSWVGLRFCSRSSVT | 0.359 ± 0.56
62 | LVSKSERER | 5.451 ± 0.053
63 | LVSLLFFGSVSLAKCQWN | -0.526 ± 0.79
64 | LVSYQVFSWSEPENSV | -0.239 ± 0.79
65 | LVTECNRDGTLDG | -0.582 ± 0.49
66 | LVVLLMRWSLPLNVESGMF | -0.105 ± 1.1
67 | LVVNASLRWIRHWSKGF | 4.515 ± 0.035
68 | LVYLELTELQLCDAFAKVKN | 0.133 ± 0.25
69 | LWFITCNMSGHWLLTERR | 4.39 ± 0.064
70 | LWFQVTFDRICLQITTHTEL | 4.86 ± 0.075
71 | LWFYFFRDYLIGPMWNKIVI | -0.898 ± 1.1
72 | LWGMGGAWEPERETLVV | -0.268 ± 0.63
73 | LWQLPIILWFLRNCVMRNPA | -0.723 ± 0.79
74 | LWRSVAKIVSPN | -1.74 ± 0.78
75 | LWSSKYYKPPYWDNVVCSII | -0.699 ± 1

Row | Substance | amyloid nucleation score
76 | LWVGQLTTY | 0.199 ± 0.45
77 | LYAVRSALYFCTVYFGSSNR | 3.18 ± 0.13
78 | LYDTNVKWVFSCYSKACSCK | -0.323 ± 0.79
79 | LYIALIFSISHGWCIAFRLT | -0.214 ± 1.1
80 | LYKYLCAIIKNVDKVVPLRM | -0.904 ± 0.49
81 | LYLKFYLCTGKDNDWNT | inactive
82 | LYLSVPQYYFSCLFSMVEVQ | -1.07 ± 0.61
83 | LYMAFREMQSWQHCW | -0.227 ± 0.49
84 | LYPCNLELVQQHFLVMTNLG | -0.034 ± 0.23
85 | LYPLCYGL | -0.829 ± 1.1
86 | LYPSFEDTLRWPSPRGMKMC | 0.182 ± 1.1
87 | LYQNSTILWLCCLWPVPYSG | 9.921 ± 0.076
88 | LYRAGVAFVCTYFVNSGEF | 2.61 ± 0.13
89 | LYRRIRCFIYPFCKGVRCLC | -1.77 ± 0.62
90 | LYRTYLYTDYFTKMHV | -1.16 ± 0.76
91 | LYSLEKTCQVELCRRISTLL | -1.35 ± 0.75
92 | LYSVGFRLTS | inactive
93 | LYTSSATHLIRP | inactive
94 | LYVCPSASWESCPGGIKRMG | inactive
95 | LYVTQTS | -0.053 ± 0.35
96 | LYYAVQFLKIRTLLPECSLQ | 0.16 ± 0.43
97 | LYYGNPEKIPADGLSSHIMQ | 3.7 ± 0.063
98 | LYYTCDIHTGRWWVLLVHGV | 4.28 ± 0.11
99 | MAACCHKLWLTCFDTVRMFN | -0.478 ± 0.41
100 | MAESELQICMFYTMGCWDMV | -0.165 ± 0.42

Row | Substance | amyloid nucleation score
101 | MANVADMIVDGLM | 0.525 ± 0.49
102 | MAVKRGIHRQADPGITWDTE | 5.17 ± 0.082
103 | MCCFRNSNVGAYRSSSIVNG | -0.403 ± 1
104 | MCGKFNTSSCIEIYRDSEFM | -0.432 ± 0.23
105 | MCLMYANWERFDQKNGLR | 4.12 ± 0.12
106 | MCMGFRRPLTRTFFRTLCAR | 0.684 ± 0.54
107 | MCMLDRRYQTVMSKVWPNLT | 0.224 ± 0.33
108 | MCPNGPAVIGMLFRLHTLFK | 0.168 ± 0.35
109 | MCSQGCTHFRVAWPLRACRW | 3.85 ± 0.072
110 | MCVLECFDAGSGYLR | 1.06 ± 0.59
111 | MDGVHFVRYQM | 0.181 ± 0.45
112 | MDIFRYVCNCYKSSNKKVFG | -1.25 ± 0.78
113 | MDNTWNLCDSFYSCSGDLNT | -0.595 ± 0.35
114 | MDSIHFV | -0.029 ± 0.41
115 | MDSILVNVYVVNW | 9.259 ± 0.042
116 | MDVGYCRNAVHRMLGMNCMM | 4.95 ± 0.062
117 | MEEGRS | 0.525 ± 0.28
118 | MEFSAKFIYFS | 1.48 ± 0.11
119 | MEPSVIRF | -0.271 ± 0.55
120 | MESRILRNIYFCLTCKPSQW | 2.24 ± 0.17
121 | MEVNLKVKSLCQWGT | 6.791 ± 0.045
122 | MEWKSGL | 0.534 ± 0.64
123 | MFCKLRFSVFLAWVDVK | 0.356 ± 0.6
124 | MFEIIPFPTSISDRGSTIYM | -0.855 ± 0.55
125 | MFGGPTFNMRWFFTFFSRGR | 4.46 ± 0.046

Row | Substance | amyloid nucleation score
126 | MFILGVRPMISKSHNVPTQR | -0.171 ± 0.42
127 | MFKDNLLIVLFMLLMGLMRW | 3.45 ± 0.069
128 | MFKSCQEGIKHWNNPT | 3.59 ± 0.051
129 | MFLILMCNCSYVGILRPNST | 6.672 ± 0.03
130 | MFRGVQN | 0.899 ± 0.53
131 | MFVVKNRGCVM | -0.16 ± 0.3
132 | MFWSTSYRNNFWTPIWEKLG | -0.597 ± 0.39
133 | MFYFRFLKGTSQMIKAAMRS | -0.059 ± 0.49
134 | MGAYEGDRVQMLEHADFRKN | -0.355 ± 0.74
135 | MGCYFSSLSTTHKGAVDVQL | 0.13 ± 0.24
136 | MGDTRNGYFSRMLFYTDCPW | 0.037 ± 0.43
137 | MGFSRTLYIRKDIFLFVLHL | -0.759 ± 0.64
138 | MGMFKTCVHLNCVYR | 5.229 ± 0.05
139 | MGSLSHYRAQDRLREQLWLW | 0.458 ± 0.19
140 | MGVLEGLSWVSRNKISGVLQ | -0.191 ± 0.55
141 | MHASDDMLKCWYKCAEVRPA | 1.29 ± 0.31
142 | MHEEP | 1.29 ± 0.23
143 | MHRFRMSLVLRRGSGLVGWF | -0.081 ± 1.1
144 | MHSLCRM | -1.24 ± 0.53
145 | MIAVV | 0.861 ± 0.2
146 | MIFSEFGAEVIVGWFVVSVG | -0.9 ± 0.76
147 | MINFHKHGLTI | -0.482 ± 0.35
148 | MINYCREIQFRM | 3.63 ± 0.12
149 | MIPKVFSIRKSVGIYWNAEY | -1.04 ± 0.39
150 | MIQHEKQMWWADNSYP | 0.483 ± 0.24

Row | Substance | amyloid nucleation score
151 | MIQHICELLG | -0.317 ± 0.32
152 | MKGNGCNIFRQGTWRDSFAD | -0.715 ± 0.41
153 | MKLYSISELLFKFLLHSLCA | inactive
154 | MLDVCGVLHLPRRSLIAFVA | 1.27 ± 0.21
155 | MLFGFFGIPRGSRVLFSNV | inactive
156 | MLFLMGPVWTCFKICNSLLT | 0.333 ± 0.23
157 | MLFNLYISTSTLVDRS | 1.23 ± 0.17
158 | MLGRKHSWVA | 1.67 ± 0.33
159 | MLGRVKTKVACYG | 0.409 ± 0.64
160 | MLNNRLNPLFARESGELLGA | 0.871 ± 0.15
161 | MLNSVLAQAMRH | 1.28 ± 0.53
162 | MLPIRRIMQQFHGKPYNCYT | inactive
163 | MLRGSRWPSSGTFSCDDSKR | -0.038 ± 0.45
164 | MLSFHLSVVAETMTWWSTRY | 0.857 ± 0.19
165 | MLSIVNCNGSRVGYWTDS | 5.85 ± 0.08
166 | MLWVYWLGCHVRSYNLGYLR | -0.255 ± 0.63
167 | MLWWLYLTDYSISGYNVGKM | 0.433 ± 0.74
168 | MLYSWKFPEVASGNLKCRLE | -0.24 ± 0.32
169 | MMDRV | -0.092 ± 0.65
170 | MMLSYILR | 0.223 ± 0.77
171 | MMMLLG | 0.505 ± 0.13
172 | MNHTDGQHCFVSWRCLDGWR | 0.705 ± 0.66
173 | MNKCFFTSRSEG | inactive

Reference: the supplement of paper PMC12042874
